Laboratory results: the supplement of paper PMC10567573

B1: TRIM63 (parent)
chain: QEKKLSFIEALIQQYQEQLDKSTK
B2: HESX1 (parent)
chain: SKYENYFSASERLSLKRELSWYRG

Variants of: B1
Experiment: protein stability index of a GFP-peptide fusion (GPS, HEK-293T) (PSI 1-6); higher = more stable
Details: c terminus: a fixed tail appended
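Note: lentivirally expressed fusions sorted by FACS into six bins by GFP to DsRed ratio, PSI derived from sequencing read proportions per bin multiplied by bin number.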

Variant	protein stability index
K24I	1.95
K24V	2.31
K24P	3.33
Q16T	2.62
Q16C	2
Q16M	1.48
Q16L	1.49
Q16K	4.03
Q16E	3.09
Q16G	3.81
Q16Y	2.32
Q16W	1.74
Q16V	2.7
Q16N	3.05
Q16I	1.87
E17F	2.25
E17N	1.81
E17V	1.75
E17Y	2.84
E17S	2.26
E17T	2.68
E17W	1.3
E17R	1.45
E17K	2.16
E17G	2.21

Variant	protein stability index
E17C	2.47
E17A	2
E17M	2.08
E17Q	2.65
E17I	2.14
T23W	1.09
T23S	2.7
T23L	1.51
T23P	2.24
T23K	2.49
T23Y	2.26
T23A	2.75
T23I	1.84
F7G	4.64
F7V	3.45
F7N	4.97
F7R	3.92
F7I	2.58
F7M	3.33
F7C	3.23
F7P	4.36
K21F	2.54
K21G	2.02
K21C	2.29
K21S	2.78

Variant	protein stability index
K21L	2.17
K21V	3.04
K21H	2.23
L11Y	3.31
L11D	5.13
L11N	4.78
L11H	4.63
L11C	4.29
L11E	4.73
L11M	3.09
L11A	3.71
A10H	2.75
A10G	3.33
A10F	2.28
A10C	2.14
A10T	2.72
A10N	2.73
A10E	3.42
A10D	3.47
A10R	2.53
A10W	1.63
A10P	3.98
A10L	2.37
A10M	1.96
A10S	2.89

Variants of: B2
Experiment: as above
Details: c terminus: a fixed tail appended

Variant	protein stability index
E18G	1.87
E18I	1.75
E18D	1.82
E18S	1.38
E18R	2.5
E18K	1.99
E18N	2.06
E18Q	1.52
E18P	2.07
E18C	1.43
E18H	1.77
S20L	2.8
S20T	3.72
S20P	1.31
S20Y	2.75
S20Q	1.94
S20R	2.14
S20M	1.14
S20K	1.58
S20F	1.66
S20I	2.8
S20V	1.24
S20W	2.91

Variant	protein stability index
G24D	2.12
G24I	1.81
G24T	2.07
G24E	2.46
G24P	2.46
G24V	2.01
G24H	2.11
G24K	2.74
G24A	1.81
G24N	1.66
G24Y	1.45
G24L	1.35
L19E	2.08
L19T	2.31
L19V	1.79
L19A	2.62
L19S	3.25
L19G	1.87
L19K	1.81
L19R	2.18
L19W	1.41
L19C	2.01
L19P	2

Variant	protein stability index
L19H	2.66
L19I	2.52
L19F	2.68
L19M	1.95
R23C	1.53
R23K	2.14
R23P	2.18
R23F	2.16
R23A	1.85
R23Y	1.12
R23S	2.1
R23W	1.83
R23D	2.1
R23Q	2.51
R23H	2.3
R23N	1.94
W21H	1.73
W21Q	2.63
W21D	3.19
W21S	2.65
W21V	2.2
W21P	2.39
W21T	2.46

Variant	protein stability index
W21F	2.29
W21N	2.27
W21M	2.31
W21I	3.04
W21A	4.19
W21K	1.75
W21G	1.48
W21C	2.2
W21Y	2.4
R17V	3.72
R17W	1.21
R17Y	2.66
Y22H	2.56
Y22S	2.22
Y22P	2.29
Y22A	1.82
Y22K	2.46
Y22D	3.06
Y22Q	1.7
Y22C	2.27
Y22W	2.4
Y22T	1.9
Y22R	1.9
